Measurements reported in the supplement of paper PMC9732359.
± gives the uncertainty stated by the source.

Assay: protein stability index of a GFP-peptide fusion (yeast GPS) (PSI 1-4); higher = more stable; sorted into four equal gates, so the index is relative within each strain
In short: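 Plasmids in a pooled yeast library fused tiled 17-residue yeast protein peptides downstream of GFP and also expressed Cherry. Mid-log cultures grown without leucine were sorted into four equal gates by GFP/Cherry fluorescence ratio. Each gate's plasmids were PCR-amplified and Illumina-sequenced, and reads were matched to strains by barcodes. The protein stability index is derived by multiplying each gate's read frequency by its gate number and summing the results.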

| Sequence | protein stability index (doa10∆) | protein stability index (pdr5∆) | protein stability index (san1∆) | protein stability index (ubr1∆) |
| --- | --- | --- | --- | --- |
| IEAIDEYNKPNSEKFVF [ISW2] | 2.6 ± 0.1 | 2.76 ± 0.075 | 3.01 ± 0.092 | 3.15 ± 0.075 |
| SNIITKSLVQYIELLPN [DIS3] | 2.64 ± 0.072 | 2.08 ± 0.065 | 2.22 ± 0.072 | 2.38 ± 0.05 |
| YLLSIWVKKFKWAGIKT [CYT1] | 2.38 ± 0.16 | 1.57 ± 0.099 | 2.17 ± 0.098 | 2.29 ± 0.17 |
| KAIRGMVSHKTARGKAA [RPL16B] | 1.94 ± 0.056 | 2.01 ± 0.057 | 2.14 ± 0.087 | 2.62 ± 0.039 |
| LSKLEKALDRHEFFIAN [SRP68] | 2.66 ± 0.055 | 2.61 ± 0.045 | 2.55 ± 0.049 | 2.64 ± 0.047 |
| DNKDKEGNAGGDQKTSE [YOR098C/NUP1] | – | 3.6 ± 0.17 | 3.19 ± 0.17 | 3.35 ± 0.074 |
| EVRILPRQRMEEVVSND [PRP8] | 2.52 ± 0.11 | 2.73 ± 0.084 | 2.69 ± 0.064 | 2.57 ± 0.084 |
| MASLPHPKIVKKHTKKF [RPL32] | 2.41 ± 0.088 | 2.97 ± 0.093 | 2.22 ± 0.088 | 2.83 ± 0.075 |
| AAAEIADEPVKASLLLH [FAS2] | 3.1 ± 0.18 | 3.01 ± 0.24 | 2.75 ± 0.19 | 1.17 ± 0.21 |
| LFKNYRFNFISKYFIID [YMR129W/POM152] | 1.97 ± 0.068 | 1.41 ± 0.074 | 1.32 ± 0.1 | 1.42 ± 0.061 |
| KRVTIQKKDIKLARRLR [HHT1] | 3.15 ± 0.14 | 2.87 ± 0.17 | – | 3.05 ± 0.088 |
| TDKIGRSVPAPGKGILT [FAS2] | 2.95 ± 0.17 | 3.16 ± 0.13 | 2.79 ± 0.2 | 3.21 ± 0.12 |
| NKEKSNSPTSFFDGSAS [YOR098C/NUP1] | 3.1 ± 0.068 | 3.07 ± 0.057 | 3.02 ± 0.041 | 2.95 ± 0.081 |
| GCEANIHSLVKQRLDLA [YIL149C/MLP2] | 3.06 ± 0.12 | 3.19 ± 0.11 | 3.05 ± 0.062 | 3.19 ± 0.076 |
| ITSGGFLLKAYINVSRG [SRB5] | 2.23 ± 0.17 | 2.48 ± 0.12 | 2.32 ± 0.15 | 2.53 ± 0.15 |
| MKLSMPPEVTSSNCHVR [POP1] | 2.4 ± 0.066 | 2.6 ± 0.075 | 2.32 ± 0.076 | 2.48 ± 0.042 |
| RQGRSNRRGMLALSGTS [SNF5] | 2.89 ± 0.068 | 2.97 ± 0.057 | 2.81 ± 0.058 | 2.74 ± 0.051 |
| FDDACNQIWNIALNLAS [SSN2] | 3.01 ± 0.15 | 2.88 ± 0.078 | 2.91 ± 0.2 | 2.62 ± 0.14 |
| VENSVLIEKVDDTAANN [YIL149C/MLP2] | 2.83 ± 0.15 | 2.82 ± 0.15 | 2.68 ± 0.14 | 2.79 ± 0.088 |
| LLLITHHSWSQSDLEII [ARP9] | 2.36 ± 0.08 | 1.68 ± 0.048 | 1.76 ± 0.075 | 1.87 ± 0.068 |
| GGNGPEDFQQHEQIRRK [RPO26] | 3.3 ± 0.1 | 3.39 ± 0.072 | 3.09 ± 0.089 | 3.44 ± 0.083 |
| RINSTDEDLHEFQIEDA [SRB8] | 2.86 ± 0.14 | 2.87 ± 0.078 | 2.86 ± 0.12 | 3.22 ± 0.2 |
| TNKSKRPSITEAMMLKE [MED1] | 2.91 ± 0.12 | 3.03 ± 0.087 | 2.89 ± 0.094 | 3.03 ± 0.084 |
| YMEPFDLDLNEQVRKMY [NSL1] | 2.88 ± 0.1 | 2.36 ± 0.079 | 3.1 ± 0.068 | 2.46 ± 0.052 |
| QLKTGLAAIVSTVIEEF [YGL172W/NUP49] | 2.93 ± 0.094 | 2.79 ± 0.08 | 2.83 ± 0.1 | 3.04 ± 0.076 |
| RARGPMQVLTRQPVEGR [RPB2] | 2.88 ± 0.2 | 2.36 ± 0.21 | 2.79 ± 0.11 | 2.98 ± 0.24 |

| Sequence | protein stability index (doa10∆) | protein stability index (pdr5∆) | protein stability index (san1∆) | protein stability index (ubr1∆) |
| --- | --- | --- | --- | --- |
| SGPFKVNGVPLRRVNAR [RPL6A] | 2.67 ± 0.25 | 2.84 ± 0.2 | 2.96 ± 0.24 | 2.77 ± 0.075 |
| QELLNAETLCFTVNVLY [RPN3] | 3.11 ± 0.075 | 2.75 ± 0.087 | 2.94 ± 0.065 | 2.87 ± 0.062 |
| GQSTILVGSEIYEKLKN [CDC53] | 2.67 ± 0.14 | 3.12 ± 0.15 | 1.36 ± 0.21 | 1.96 ± 0.077 |
| VIEQCYLKFIPLKRAIW [SRB8] | 1.5 ± 0.053 | 1.69 ± 0.059 | 1.4 ± 0.099 | 1.32 ± 0.042 |
| EAMMLKEEGLQQFNLHE [MED1] | 2.97 ± 0.16 | 3.26 ± 0.15 | 3.17 ± 0.12 | 2.61 ± 0.12 |
| LIENGASVRIKDKFNQI [NAS6] | – | 3.12 ± 0.18 | – | 3.27 ± 0.065 |
| GNGITNTTTRVIPQVEV [SNF5] | 3.02 ± 0.15 | 2.58 ± 0.095 | 1.98 ± 0.21 | 2.49 ± 0.1 |
| HQFHDILEEKTDLHLPK [NSL1] | 2.35 ± 0.07 | 2.29 ± 0.065 | 2.27 ± 0.076 | 2.38 ± 0.054 |
| NVIDTQRKNGVTNSPLF [ECM29] | 3 ± 0.25 | 3.19 ± 0.091 | 3.09 ± 0.21 | 3.12 ± 0.11 |
| DLEHKEDCVEEFFHLQH [QCR6] | 2.77 ± 0.1 | 2.75 ± 0.11 | 2.69 ± 0.14 | 3.37 ± 0.1 |
| LTNEISDLKGKLSSAEN [YIL149C/MLP2] | 3.38 ± 0.22 | 3.29 ± 0.13 | – | 3.32 ± 0.18 |
| EVDSASDFISKLEYPHT [RPN3] | 2.96 ± 0.087 | 3.09 ± 0.087 | 2.93 ± 0.075 | 3.02 ± 0.079 |
| RFYELEESLTVLNCLRT [YJR042W/NUP85] | 2 ± 0.14 | 2.25 ± 0.12 | 1.7 ± 0.29 | 2.62 ± 0.11 |
| KYLKKRKIGISIDDHPY [RPC31] | 1.41 ± 0.075 | 1.33 ± 0.081 | 1.77 ± 0.099 | 1.74 ± 0.051 |
| SDDDNIGQSEELSDKEI [ISW2] | 3.31 ± 0.1 | 3.44 ± 0.09 | 3.31 ± 0.08 | 3.41 ± 0.12 |
| TQVNILKENNAILQKSL [YIL149C/MLP2] | 2.44 ± 0.06 | 2.55 ± 0.062 | 2.63 ± 0.076 | 2.65 ± 0.059 |
| PIIIYGTENTERPPLLP [YOR098C/NUP1] | 3.13 ± 0.09 | 2.74 ± 0.1 | 2.97 ± 0.06 | 2.94 ± 0.048 |
| NNFIVERVQSDENKDDE [SRP68] | 3.52 ± 0.16 | 3.35 ± 0.1 | 2.77 ± 0.23 | 3.04 ± 0.098 |
| VLVDEIKSQYYSRISKL [YIL149C/MLP2] | 2.41 ± 0.054 | 2.46 ± 0.045 | 2.3 ± 0.058 | 2.29 ± 0.034 |
| SSISVMGENEKPDVTYA [RPT3] | 2.92 ± 0.2 | 3.25 ± 0.1 | 3.12 ± 0.11 | 3.27 ± 0.083 |
| YSFGGLLMRLEGNYRNL [RPB8] | 1.8 ± 0.12 | 2.55 ± 0.12 | 3.06 ± 0.17 | 2.56 ± 0.088 |
| VSKPSLLHETNDSFKGL [PRP8] | – | 2.74 ± 0.13 | – | 2.99 ± 0.097 |
| SVANTPSEIPDAHKAEQ [SWI3] | 3.04 ± 0.066 | 3.25 ± 0.065 | 3.42 ± 0.077 | 3.03 ± 0.061 |
| EIKKVTQIVAKFPETSY [SIN4] | 2.25 ± 0.27 | 3.02 ± 0.11 | – | 2.57 ± 0.27 |
| CEQQPSQEREFSLLVKA [SIN4] | 3.01 ± 0.077 | 3.07 ± 0.08 | 2.94 ± 0.054 | 3.04 ± 0.045 |
| GEKKVGSNGELFGGRHY [SWP82] | 3.13 ± 0.2 | 3.26 ± 0.13 | 3.73 ± 0.12 | – |
